The values that follow come from paper PMC5548745, “Agonist-induced dimer dissociation as a macromolecular step in G protein-coupled receptor signaling” (Nature Communications, 2017).

In test [1] the test system is SNAP-β2-adrenergic receptor. Description: SNAP-β2-AR internalization by confocal microscopy. It is filed as cell-based. Conditions: HEK293; isoproterenol 10 µM, 15 min. As to the method: SNAP-FZD6 and SNAP-β2-AR were imaged in living cells using a Zeiss LSM710 equipped with a 40×, 1.2 NA C-Apochromat objective. The cell-impermeable SNAP substrate SNAP-Surface 549 (New England Biolabs) was added (1:1000, 15 min), washed twice in BE buffer and imaged using the 561 nm laser line. SNAP-FZD6 and SNAP-β2-AR were stimulated with 300 ng ml^−1 WNT-5A and 10 µM isoproterenol, respectively, and fluorescence was monitored over time.

In another test the test system is FZD6–FZD6 dimer. As to the kind of experiment: dcFRAP of V5-FZD6-mCherry/FZD6-GFP (FZD6 dimerization). The class given is cell-based, human. The settings on record: HEK293; GFP-tagged mutant with wt V5-FZD6-mCherry; anti-V5/avidin crosslinking. An outline of the steps:
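Live cells co-expressing V5-FZD6-mCherry and FZD6-GFP, surface V5 tag crosslinked with biotin-anti-V5 plus avidin in BE buffer at RT. Membrane areas photobleached, recovery imaged (488/561 nm) over 100 s; mobile fraction from background/bleach-corrected, pre-bleach-normalized intensity at 85-101 s. Cells with <40% crosslink-induced mobility reduction excluded.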

Test [2] deals with ERK1/2 phosphorylation in HEK293 cells. Description: P-ERK1/2 immunoblot, HEK293 cells expressing SNAP-FZD6 constructs. It is filed as cell-based. As to the method:
Fig. 6 Relationship between FZD6 dimerization and phosphorylation of ERK1/2. a Mouse lung epithelial (MLE-12) cells were stimulated with WNT-5A (300 ng ml^−1) for 0, 2.5, 5, 10, 20 min. Cell lysates were analyzed for P-ERK1/2 and β-actin by immunoblotting. Additional information in Supplementary Fig. 6. b Bar graph summarizes three independent experiments. Densitometry data were normalized to the unstimulated control. […] Additional information in Supplementary Fig. 6. SNAP-FZD6 wt- and SNAP-FZD6 dimer mutant-induced ERK1/2 phosphorylation in the absence e and presence f of the porcupine inhibitor C59 (5 µM, overnight) were probed by immunoblotting for the SNAP-tag, P-ERK1/2, total ERK1/2 and β-actin. g The bar graph summarizes densitometry data of P-ERK1/2 normalized to total ERK1/2 from 6 different experiments. P = 0.0005; F (2, 15) = 13.08. ***P < 0.001. Empty vector transfection was used as mock. h Increasing amounts of plasmid of either SNAP-FZD6 wt or SNAP-FZD6 dimer mutant in the presence of C59 show a dose-dependent increase in P-ERK1/2 only with the dimer mutant. Data from three independent experiments for the dimer mutant were fit to a linear least-squares model (slope = 0.40 ± 0.10; R ^2 = 0.5943) and this line is shown superimposed. […] This dissociation-dependent activation can be evoked by agonist (WNT^high) or mutation of the dimer interface (symbolized by red stars). WNT^low conditions can be achieved in the presence of C59, which reduces FZD6 wt signaling
MLE-12 or HEK293 cells (ATCC) were plated in a 24- or 48-well plate at a density of 100,000 or 50,000 cells/well, respectively. After 24 h, cells were transfected using Lipofectamine 2000 according to the manufacturer’s instructions. Cells were stimulated (24 h post-transfection) with 300 ng ml^−1 recombinant carrier-free WNT-5A (CF WNT-5A; R&D Systems). Stimulation was stopped by the addition of lysis buffer (1% NP-40, 150 mM NaCl, 50 mM Tris/HCl pH 8). Lysates were sonicated and analyzed by 7.5 or 10% Mini-PROTEAN TGX precast polyacrylamide gels (Bio-Rad) and transferred to PVDF membranes using the Trans-Blot Turbo system (Bio-Rad). After blocking with 5% milk or BSA in TBS-T, membranes were incubated with primary antibodies in blocking buffer: mouse anti-β-actin (1:30,000; Sigma #A5441), rabbit anti-FZD6 (1:1000; NovusBio #NBP1-00830), rabbit anti-Phospho-p44/42 MAPK (ERK1/2) (Thr202/Tyr204) (1:1000; Cell Signaling Technology #9101 L), rabbit anti-p44/42 MAPK (ERK1/2) (1:1000; Cell Signaling Technology #9102), rabbit anti-Phospho-C-RAF (Ser338) (1:1000; Cell Signaling Technology #56A6), rabbit anti-SNAP tag (1:1000, New England Biolabs #P9310S), and rabbit anti-HA (1:4000, abcam #ab9110) overnight at 4 °C. Proteins were detected with horseradish peroxidase-conjugated secondary antibodies (goat anti-rabbit and goat anti-mouse (Pierce)) and Clarity Western ECL Blotting Substrate (Bio-Rad). All uncropped immunoblots can be found in the Supplementary Information.
In general terms: In western blotting, separated proteins are transferred to a membrane and probed.

The test system of the next test is DVL2-GFP. Description: dcFRAP with chemical surface crosslinking, FZD6 dimer mutant/DVL2-GFP. The settings on record: inactive state. The class given is cell-based. The procedure: For dual color FRAP experiments, cells grown in four compartment 35 mm glass bottom dishes were washed three times with BE buffer[19] (150 mM NaCl, 2.5 mM KCl, 10 mM HEPES, 12 mM glucose, 0.5 mM CaCl2, and 0.5 mM MgCl2). Then, the cells were incubated at RT for 30 min with biotin-conjugated goat polyclonal anti-V5 antibody (Bethyl) diluted 1:100 in BE buffer supplemented with 2.5% bovine serum albumin. For antibody-mediated cross-linking, avidin was added and incubated for 15 min and washed two times with BE buffer before the experiments were performed. […] Fluorescence was measured pre- and post-bleach using low-intensity illumination for a total time period of 100 s. Average pixel intensity was measured using the ZEN2013 software, corrected for background fluctuations and bleaching artifacts and normalized to pre-bleached intensity. The recovered mobile fraction (F m) was calculated as follows: F m = (I P–I 0)/(I I–I 0), where I I is the initial intensity measured prior to bleaching, I 0 is the immediate fluorescence intensity post-bleaching and I P is intensity value post-bleaching. The mobile fraction was defined by the average of the fluorescence recovery assessed between time 85–101 s (including pre-bleach measurements). […]

The test system of test [3] is subcellular localization in HEK293 cells. As to the kind of experiment: co-localization of FZD6-R511C with FZD6 constructs. It is filed as cell-based, human. The settings on record: FZD6-R511C with FZD6-mCherry, or FZD6 dimer mutant with FZD6-R511C.
The next test has as its system Gαi1-GFP. Conditions: cited from earlier work.

As to `CC(C)NCC(O)c1ccc(O)c(O)c1` (stereo not drawn) [isoproterenol], in test [1], the “internalization of SNAP-β2-adrenergic receptor” value is listed as “appearance of numerous endosome-like structures after 15 min”.

B1: FZD6 dimer mutant: D365A, R368A, Y369A triple mutant of FZD6 (protein)
chain: HSLFTCEPITVPRCMKMAYNMTFFPNLMGHYDQSIAAVEMEHFLPLANLECSPNIETFLCKAFVPTCIEQIHVVPPCRKLCEKVYSDCKKLIDTFGIRWPEELECDRLQYCDETVPVTFDPHTEFLGPQKKTEQVQRDIGFWCPRHLKTSGGQGYKFLGIDQCAPPCPNMYFKSDELEFAKSFIGTVSIFCLCATLFTFLTFLIDVRRFRYPERPIIYYSVCYSIVSLMYFIGFLLGDSTACNKADEKLELGDTVVLGSQNKACTVLFMLLYFFTMAGTVWWVILTITWFLAAGRKWSCEAIEQKAVWFHAVAWGTPGFLTVMLLAMNKVEGDNISGVCFVGLYDLAASAAFVLLPLCLCVFVGLSLLLAGIISLNHVRQVIQHDGRNQEKLKKFMIRIGVFSGLYLVPLVTLLGCYVYEQVNRITWEITWVSDHCRQYHIPCPYQAKAKARPELALFMIKYLMTLIVGISAVFWVGSKKTCTEWAGFFKRNRKRDPISESRRVLQESCEFFLKHNSKVKHKKKHYKPSSHKLKVISKSMGTSTGATANHGTSAVAITSHDYLGQETLTEIQTSPETSMREVKADGASTPRLREQDCGEPASPAASISRLSGEQVDGKGQAGSVSESARSEGRISPKSDITDTGLAQSNNLQVPSSSEPSSLKGSTSLLVHPVSGVRKEQGGGCHSDT
modifications: left off: GFP, C-terminal, kept
As to B1, the “dimerization by CL-induced decrease of mobile fraction” value in the test with FZD6–FZD6 dimer is on record as “did not result in a decrease of the mobile fraction of FZD6-GFP”. Moreover, the “P-ERK1/2 induction in presence of C59” value in test [2] (HEK293, C59 5 µM overnight) is recorded as “maintained its ability to induce ERK1/2 phosphorylation”. Besides, the “slope of P-ERK1/2 vs plasmid amount” value in test [2] (HEK293, C59, linear least-squares, R^2 = 0.5943, three independent experiments) was 0.40 ± 0.10. Also, the “effect of overexpression on basal P-ERK1/2 without C59” value in test [2] (serum-starved HEK293, no C59) is listed as “increased basal P-ERK1/2”. Also, in the test with DVL2-GFP, the “assembly with DVL” value was “retained the ability to interact with the scaffold protein DVL”. Also, the “subcellular localization on co-expression” value in test [3] is “maintained cell surface localization”.

B2: FZD6-R511C: DVL-biased FZD6 nail dysplasia mutant (protein, UniProt O60353 19-706, looked up, variant R511C)
Frizzled-6: HSLFTCEPITVPRCMKMAYNMTFFPNLMGHYDQSIAAVEMEHFLPLANLECSPNIETFLCKAFVPTCIEQIHVVPPCRKLCEKVYSDCKKLIDTFGIRWPEELECDRLQYCDETVPVTFDPHTEFLGPQKKTEQVQRDIGFWCPRHLKTSGGQGYKFLGIDQCAPPCPNMYFKSDELEFAKSFIGTVSIFCLCATLFTFLTFLIDVRRFRYPERPIIYYSVCYSIVSLMYFIGFLLGDSTACNKADEKLELGDTVVLGSQNKACTVLFMLLYFFTMAGTVWWVILTITWFLAAGRKWSCEAIEQKAVWFHAVAWGTPGFLTVMLLAMNKVEGDNISGVCFVGLYDLDASRYFVLLPLCLCVFVGLSLLLAGIISLNHVRQVIQHDGRNQEKLKKFMIRIGVFSGLYLVPLVTLLGCYVYEQVNRITWEITWVSDHCRQYHIPCPYQAKAKARPELALFMIKYLMTLIVGISAVFWVGSKKTCTEWAGFFKRNCKRDPISESRRVLQESCEFFLKHNSKVKHKKKHYKPSSHKLKVISKSMGTSTGATANHGTSAVAITSHDYLGQETLTEIQTSPETSMREVKADGASTPRLREQDCGEPASPAASISRLSGEQVDGKGQAGSVSESARSEGRISPKSDITDTGLAQSNNLQVPSSSEPSSLKGSTSLLVHPVSGVRKEQGGGCHSDT
modifications: GFP or mCherry tag
notes: DVL-biased FZD6 nail dysplasia mutant
Turning to B2, the “subcellular localization on co-expression” value in test [3] is “predominant intracellular localization of both constructs”. Also, the “assembly with Gαi1/Gαq proteins” value in the test with Gαi1-GFP is listed as “does not assemble with Gαi1/Gαq proteins”.
